Measured values as given in patent US20110275569A1 (CONSIGLIO NAZIONALE DELLE RICERCHE, published 2011).
Where no end group is shown, it is not given here.

Columns and labels:
[1] = biological target: T1, porcine elastase (porcine, UniProt P00772 27-266); assay: cell-based or functional assay
[2] = biological target: T2, bovine alpha-chymotrypsin (bovine, UniProt P00766 1-13; P00766 16-146; P00766 149-245); assay: cell-based or functional assay
[3] = biological target: T1, porcine elastase; assay: enzyme inhibition kinetics, double reciprocal plot
[4] = biological target: T2, bovine alpha-chymotrypsin; assay: enzyme inhibition kinetics, double reciprocal (Lineweaver-Burk) plot, competitive inhibition
Experimental: The reciprocals of the rate of the substrate hydrolysis for each inhibitor concentration were plotted against the reciprocals of the substrate concentrations. Ki was determined from the formula as per the competitive type of inhibition.

[5] = biological target: T3, human acylamino-acid-releasing enzyme (AARE or APEH) (human, UniProt P13798 1-732, limits assumed); assay: cell-based or functional assay
T3 sequence (looked up): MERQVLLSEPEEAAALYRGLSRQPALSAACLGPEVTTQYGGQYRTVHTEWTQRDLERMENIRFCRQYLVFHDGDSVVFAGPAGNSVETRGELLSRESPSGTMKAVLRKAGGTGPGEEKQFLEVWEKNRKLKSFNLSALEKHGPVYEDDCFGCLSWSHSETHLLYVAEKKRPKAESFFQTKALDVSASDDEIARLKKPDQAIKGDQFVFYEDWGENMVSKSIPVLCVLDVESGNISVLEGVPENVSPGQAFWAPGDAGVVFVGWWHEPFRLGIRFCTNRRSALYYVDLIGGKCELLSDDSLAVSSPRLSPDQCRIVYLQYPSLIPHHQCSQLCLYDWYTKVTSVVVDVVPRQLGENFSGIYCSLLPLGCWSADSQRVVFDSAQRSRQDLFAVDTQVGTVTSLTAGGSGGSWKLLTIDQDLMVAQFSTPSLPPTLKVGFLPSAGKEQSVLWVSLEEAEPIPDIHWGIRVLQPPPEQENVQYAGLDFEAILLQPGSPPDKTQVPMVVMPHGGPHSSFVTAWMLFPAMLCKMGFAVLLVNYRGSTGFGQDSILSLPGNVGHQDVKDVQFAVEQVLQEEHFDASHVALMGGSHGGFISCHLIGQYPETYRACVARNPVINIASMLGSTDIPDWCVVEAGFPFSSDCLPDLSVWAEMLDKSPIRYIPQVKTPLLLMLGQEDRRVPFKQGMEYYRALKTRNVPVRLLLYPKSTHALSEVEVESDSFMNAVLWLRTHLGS

[6] = biological target: T1, porcine elastase; assay: cell-based or functional assay; remark: listed apart in the source
[7] = biological target: T2, bovine alpha-chymotrypsin; assay: cell-based or functional assay; remark: listed apart in the source
[8] = biological target: T4, porcine acylamino-acid-releasing enzyme (AARE or APEH) (porcine, UniProt P19205 1-732, limits assumed); assay: cell-based or functional assay
T4 sequence (looked up): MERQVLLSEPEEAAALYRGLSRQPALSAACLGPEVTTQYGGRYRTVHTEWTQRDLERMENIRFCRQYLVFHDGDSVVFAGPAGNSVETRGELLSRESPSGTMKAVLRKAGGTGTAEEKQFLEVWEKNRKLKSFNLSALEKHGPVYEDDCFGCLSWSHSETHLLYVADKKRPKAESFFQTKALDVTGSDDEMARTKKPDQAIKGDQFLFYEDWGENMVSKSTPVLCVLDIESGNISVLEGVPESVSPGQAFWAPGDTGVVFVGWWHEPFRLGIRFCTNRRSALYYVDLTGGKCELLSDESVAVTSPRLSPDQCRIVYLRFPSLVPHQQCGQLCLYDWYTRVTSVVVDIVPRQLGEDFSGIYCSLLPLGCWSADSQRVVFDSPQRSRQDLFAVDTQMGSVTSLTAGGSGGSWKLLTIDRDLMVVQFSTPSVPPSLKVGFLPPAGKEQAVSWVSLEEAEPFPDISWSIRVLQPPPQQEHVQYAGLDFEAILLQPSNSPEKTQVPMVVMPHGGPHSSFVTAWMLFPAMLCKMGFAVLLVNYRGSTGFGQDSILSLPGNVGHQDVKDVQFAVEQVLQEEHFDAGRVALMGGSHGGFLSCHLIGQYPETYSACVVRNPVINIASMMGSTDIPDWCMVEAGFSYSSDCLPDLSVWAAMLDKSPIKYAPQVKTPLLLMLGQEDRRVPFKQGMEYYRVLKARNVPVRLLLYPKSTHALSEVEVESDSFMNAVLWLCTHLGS

[9] = biological target: T4, porcine acylamino-acid-releasing enzyme …; assay: enzyme inhibition kinetics, Lineweaver-Burk plot, competitive inhibition
[10] = biological target: T3, human acylamino-acid-releasing enzyme …; assay: cell-based or functional assay; remark: listed apart in the source
[11] = biological target: T4, porcine acylamino-acid-releasing enzyme …; assay: enzyme inhibition kinetics with N-acetyl-Ala-pNA as substrate
[12] = biological target: T4, porcine acylamino-acid-releasing enzyme …; assay: cell-based or functional assay; remark: listed apart in the source

T1 sequence (P00772 27-266 limits assumed): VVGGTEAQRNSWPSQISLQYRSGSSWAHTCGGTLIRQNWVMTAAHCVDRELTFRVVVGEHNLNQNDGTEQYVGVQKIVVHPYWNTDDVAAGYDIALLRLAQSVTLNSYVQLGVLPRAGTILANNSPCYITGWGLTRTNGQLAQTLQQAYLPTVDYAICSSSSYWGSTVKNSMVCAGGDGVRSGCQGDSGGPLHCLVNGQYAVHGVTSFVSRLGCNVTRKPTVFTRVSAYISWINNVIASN

| Binder | IC50 [1] [µM] | IC50 [2] [µM] | Ki [3] [µM] | Ki [4] [µM] | IC50 value at 37° C. [5] [µM] | IC50 value [6] [µM] | IC50 value (50% inhibitory concentration) [7] [µM] | IC50 [8] [µM] | Ki [9] [µM] | IC50 [10] [µM] | Ki [11] [µM] | IC50 values [12] [µM] |
| --- | --- | --- | --- | --- | --- | --- | --- | --- | --- | --- | --- | --- |
| recombinant S. solfataricus inhibitor Sso0767 (SsCEI) (other, The filling uses Sso0767, Sso1273 and SsCEI for the same protein; also called Sso1273; not shown: C-terminal His tag from expression vector pET-28) MNSESIYSMRVVSSAFKNEDFIPIKYTCDGQDLSPELEWDLVTNAKSYAIIVEDPDAPGGTFIHWVIYNITTNRLPEGVPRLYKSQYGVQGVNDFGNIGYNGPCPPKTHPPHRYYFYVYAIDTILLEIKNINADKLKSLMEGHGIERGFVMGKYKRK | 0.04 | 0.025 | 0.1 | 0.08 | 0.02 | 0.15 | 0.1 |  |  |  |  |  |
| TILAEIKNINAD-NH2 (also called Peptide 4) [Compound 4 or SsCEI 4] |  |  |  |  |  |  |  | 35 | 4 | 35 |  |  |
| YAIDTILAEIKNINAD-NH2 (also called Peptide 3) [Compound 3 or SsCEI 3] |  |  |  |  |  |  |  | 25 |  | 25 | 20 | 20 |
